{"source": "the RNAGym collection of RNA variant scans (doi:10.7554/elife.80360)", "parents": {"B1": {"name": "HDV Ribozyme (parent)", "chain": "GGCCGGCAUGGUCCCAGCCUCCUCGCUGGCGCCGGCUGGGCAACAUUCCGAGGGGACCGUCCCCUCGGUAAUGGCGAAUGGGACCCA"}}}
{"variants_of": "B1", "test": "self-cleavage, relative activity (ratio to wild type); higher = more cleavage; co-transcriptional"}
{"variant": "G34C A70U", "self-cleavage": 0.0378}
{"variant": "G34A G38A", "self-cleavage": 0.0583}
{"variant": "C33U A78G", "self-cleavage": 0.228}
{"variant": "C33G A70G", "self-cleavage": 0.104}
{"variant": "G34C C61A", "self-cleavage": 0.208}
{"variant": "C32A G35C", "self-cleavage": 0.0405}
{"variant": "C33A G68U", "self-cleavage": 0.102}
{"variant": "C33G C48G", "self-cleavage": 0.227}
{"variant": "C33U C64G", "self-cleavage": 0.736}
{"variant": "G34C G53A", "self-cleavage": 0.229}
{"variant": "C33A U79G", "self-cleavage": 0.214}
{"variant": "C33U C61A", "self-cleavage": 0.721}
{"variant": "C33G G76U", "self-cleavage": 0.116}
{"variant": "C33A G40U", "self-cleavage": 0.23}
{"variant": "C32U G52A", "self-cleavage": 0.805}
{"variant": "C32U G52U", "self-cleavage": 0.963}
{"variant": "G34U G81C", "self-cleavage": 0.144}
{"variant": "C32G C41A", "self-cleavage": 0.0354}
{"variant": "C32G C33U", "self-cleavage": 0.115}
{"variant": "G34A G39C", "self-cleavage": 0.0707}
{"variant": "C33U G50C", "self-cleavage": 0.786}
{"variant": "C33U G50A", "self-cleavage": 0.774}
{"variant": "C33U A87C", "self-cleavage": 0.745}
{"variant": "C33U U46A", "self-cleavage": 0.434}
{"variant": "C33U C63U", "self-cleavage": 0.845}
{"variant": "C32U U47C", "self-cleavage": 0.764}
{"variant": "G34C G50U", "self-cleavage": 0.175}
{"variant": "C33A A87U", "self-cleavage": 0.226}
{"variant": "G34C C84U", "self-cleavage": 0.217}
{"variant": "C32G G54U", "self-cleavage": 0.153}
{"variant": "C32U C44G", "self-cleavage": 0.374}
{"variant": "G34A A51C", "self-cleavage": 0.193}
{"variant": "G34A C62G", "self-cleavage": 0.13}
{"variant": "C33A G55C", "self-cleavage": 0.181}
{"variant": "G34A G55A", "self-cleavage": 0.17}
{"variant": "G34A G55U", "self-cleavage": 0.192}
{"variant": "C33A A43G", "self-cleavage": 0}
{"variant": "G34U G82A", "self-cleavage": 0.123}
{"variant": "G34C G54U", "self-cleavage": 0.123}
{"variant": "C33U C44A", "self-cleavage": 0.499}
{"variant": "C32A C86G", "self-cleavage": 0.243}
{"variant": "C32U C64G", "self-cleavage": 0.875}
{"variant": "C32G U46C", "self-cleavage": 0.0978}
{"variant": "G34A G82U", "self-cleavage": 0.129}
{"variant": "G34A G82A", "self-cleavage": 0.0671}
{"variant": "C33A U60G", "self-cleavage": 0.116}
{"variant": "C32G C58G", "self-cleavage": 0.0773}
{"variant": "C32G C58U", "self-cleavage": 0.0234}
{"variant": "C32G G81U", "self-cleavage": 0.0639}
{"variant": "G34A G81A", "self-cleavage": 0.128}
{"variant": "G34U G50U", "self-cleavage": 0.191}
{"variant": "G34U C85U", "self-cleavage": 0.164}
{"variant": "G34U C41U", "self-cleavage": 0.131}
{"variant": "C32A C75A", "self-cleavage": 0.0723}
{"variant": "G34A U69C", "self-cleavage": 0.291}
{"variant": "C33G G74C", "self-cleavage": 0.237}
{"variant": "C32G G35C", "self-cleavage": 0.0386}
{"variant": "C32G G35U", "self-cleavage": 0.0583}
{"variant": "G34A C58G", "self-cleavage": 0.177}
{"variant": "G34A C58U", "self-cleavage": 0.122}
{"variant": "G34C G52A", "self-cleavage": 0.17}
{"variant": "G34A C75A", "self-cleavage": 0.107}
{"variant": "C32G A51C", "self-cleavage": 0.0489}
{"variant": "C32G A51G", "self-cleavage": 0.0665}
{"variant": "G34A C66U", "self-cleavage": 0.0665}
{"variant": "G34A C66A", "self-cleavage": 0.286}
{"variant": "C32U G55A", "self-cleavage": 0.967}
{"variant": "G34A A56U", "self-cleavage": 0.256}
{"variant": "G34A A56G", "self-cleavage": 0.104}
{"variant": "C33A C86U", "self-cleavage": 0.244}
{"variant": "C33A C86G", "self-cleavage": 0.277}
{"variant": "G34C C48U", "self-cleavage": 0.17}
{"variant": "G34A G50A", "self-cleavage": 0.16}
{"variant": "G34C G81A", "self-cleavage": 0.16}
{"variant": "G34C U69A", "self-cleavage": 0.0739}
{"variant": "C32U C62G", "self-cleavage": 0.727}
{"variant": "G34U C61A", "self-cleavage": 0.0608}
{"variant": "G34U G68A", "self-cleavage": 0.274}
{"variant": "G34C A56C", "self-cleavage": 0.237}
{"variant": "G34C A56G", "self-cleavage": 0.142}
{"variant": "C33U G81U", "self-cleavage": 0.177}
{"variant": "C32G G34U", "self-cleavage": 0.0415}
{"variant": "C32G G34A", "self-cleavage": 0.0875}
{"variant": "C32G G80C", "self-cleavage": 0}
{"variant": "G34U A45U", "self-cleavage": 0.0378}
{"variant": "G34A C61U", "self-cleavage": 0.213}
{"variant": "C32U A83G", "self-cleavage": 0.501}
{"variant": "C32U A83C", "self-cleavage": 0.232}
{"variant": "C33U C66U", "self-cleavage": 0.774}
{"variant": "C32A G54U", "self-cleavage": 0.102}
{"variant": "C32G C75A", "self-cleavage": 0.154}
{"variant": "C33A G35A", "self-cleavage": 0.151}
{"variant": "G34A C48G", "self-cleavage": 0.119}
{"variant": "C32A U65G", "self-cleavage": 0.122}
{"variant": "C33U C86A", "self-cleavage": 0.746}
{"variant": "G34A U47G", "self-cleavage": 0.0791}
{"variant": "G34U G35U", "self-cleavage": 0.175}
{"variant": "C32U G80U", "self-cleavage": 0.145}
{"variant": "C32U C61G", "self-cleavage": 0.791}
{"variant": "C32U A77C", "self-cleavage": 0.162}
{"variant": "C33A G82U", "self-cleavage": 0.0332}
{"variant": "C33A G82A", "self-cleavage": 0.102}
{"variant": "G34C U60A", "self-cleavage": 0.306}
{"variant": "C33G A78C", "self-cleavage": 0}
{"variant": "C32G G39U", "self-cleavage": 0.0563}
{"variant": "C32G G39C", "self-cleavage": 0.116}
{"variant": "C32U C48G", "self-cleavage": 1.04}
{"variant": "C32U C48A", "self-cleavage": 1.04}
{"variant": "C32U G40A", "self-cleavage": 0.987}
{"variant": "C32G C36A", "self-cleavage": 0.125}
{"variant": "C32U G67A", "self-cleavage": 0.857}
{"variant": "C33U G80U", "self-cleavage": 0.179}
{"variant": "C33U G80A", "self-cleavage": 0.12}
{"variant": "G34U G54A", "self-cleavage": 0.041}
{"variant": "G34U G54C", "self-cleavage": 0.0468}
{"variant": "C33U C48A", "self-cleavage": 0.631}
{"variant": "G34A A77U", "self-cleavage": 0.0339}
{"variant": "C33G G80A", "self-cleavage": 0.0631}
{"variant": "C33G G80U", "self-cleavage": 0.0528}
{"variant": "G34C G35C", "self-cleavage": 0.246}
{"variant": "C33A G80A", "self-cleavage": 0.123}
{"variant": "C33U A56U", "self-cleavage": 0.758}
{"variant": "G34U G76C", "self-cleavage": 0.0821}
{"variant": "G34U G76A", "self-cleavage": 0.231}
{"variant": "G34A C36A", "self-cleavage": 0.0978}
{"variant": "C32U G35C", "self-cleavage": 0.0573}
{"variant": "C33G G40C", "self-cleavage": 0.138}
{"variant": "C33U G74U", "self-cleavage": 0.41}
{"variant": "C33U G74C", "self-cleavage": 0.0339}
{"variant": "C32G U47A", "self-cleavage": 0.244}
{"variant": "C32U G38U", "self-cleavage": 0.205}
{"variant": "G34U A42G", "self-cleavage": 0.0449}
{"variant": "C33A C75A", "self-cleavage": 0.122}
{"variant": "C33A C75U", "self-cleavage": 0.0563}
{"variant": "G34C C49A", "self-cleavage": 0.249}
{"variant": "G34C C49U", "self-cleavage": 0.208}
{"variant": "C32U G68C", "self-cleavage": 0.803}
{"variant": "C33G A77G", "self-cleavage": 0.138}
{"variant": "C33G A77C", "self-cleavage": 0.115}
{"variant": "C32U G53A", "self-cleavage": 1.01}
{"variant": "C32U U79G", "self-cleavage": 0.504}
{"variant": "C32U C57G", "self-cleavage": 0.975}
{"variant": "C32U C57U", "self-cleavage": 0.843}
{"variant": "C32U C57A", "self-cleavage": 0.817}
{"variant": "G34U U37A", "self-cleavage": 0.158}
{"variant": "G34U U37C", "self-cleavage": 0.148}
{"variant": "G34U C44A", "self-cleavage": 0.0545}
{"variant": "C32A C48U", "self-cleavage": 0.106}
{"variant": "C32G U60G", "self-cleavage": 0.196}
{"variant": "G34C C85A", "self-cleavage": 0.249}
{"variant": "G34C C85G", "self-cleavage": 0.125}
{"variant": "C32A C36U", "self-cleavage": 0.0733}
{"variant": "C32A C36G", "self-cleavage": 0.162}
{"variant": "C33G G67U", "self-cleavage": 0.111}
{"variant": "G34U C66G", "self-cleavage": 0.164}
{"variant": "G34U C66A", "self-cleavage": 0.0712}
{"variant": "G34A C57U", "self-cleavage": 0.332}
{"variant": "G34A C41G", "self-cleavage": 0.141}
{"variant": "C32U C58U", "self-cleavage": 0.831}
{"variant": "G34A C49G", "self-cleavage": 0.155}
{"variant": "G34U G52A", "self-cleavage": 0.208}
{"variant": "C33U C75U", "self-cleavage": 0.0817}
{"variant": "C33U C75G", "self-cleavage": 0.222}
{"variant": "C33U C41G", "self-cleavage": 0.372}
{"variant": "C33A U72G", "self-cleavage": 0.122}
{"variant": "C32U G39U", "self-cleavage": 0.486}
{"variant": "C32A U60A", "self-cleavage": 0.252}
